The experiment deals with Human TNF-α (R&D Systems) (human, UniProt P01375 77-233, labeled with Alexa Fluor 647 in the FACS assays). The experiment is described as follows: Biacore. Background: Surface plasmon resonance follows binding to a sensor surface in real time, without labels.
Chain of Human TNF-α (R&D Systems) (P01375 77-233): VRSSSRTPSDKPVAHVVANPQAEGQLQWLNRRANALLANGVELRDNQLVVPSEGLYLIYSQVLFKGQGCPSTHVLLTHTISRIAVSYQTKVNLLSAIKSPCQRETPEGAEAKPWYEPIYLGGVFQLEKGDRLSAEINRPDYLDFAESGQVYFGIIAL

B1: D2E7 combination variant Y32K/SS-R30I (antibody, V domains shown)
VH: not shown
VL: DIQMTQSPSSLSASVGDRVTITCRASQSIINYLSWYQQKPGKAPKLLIYAASTLQSGVPSRFSGSGSGTDFTLTISSLQPEDVATYYCQRYNRAPYTFGQGTKVEIK
One may read the Kd as the concentration at which binding is half-saturated. On to B1, for which the Kd worked out at 0.149 nM.

B2: D2E7 combination variant Y32K/SS-R30T (antibody, V domains shown)
VH: not shown
VL: DIQMTQSPSSLSASVGDRVTITCRASQSITNYLSWYQQKPGKAPKLLIYAASTLQSGVPSRFSGSGSGTDFTLTISSLQPEDVATYYCQRYNRAPYTFGQGTKVEIK
In the case of B2, the Kd was determined as 0.13 nM.

Source of the values: US20140227251A1 (published 2014).
